Biological target: GFP-TIpA fusion protein (Salmonella typhimurium) [GFP: P42212]
Experiment: cell-based or functional assay

Substance: GFP-TIpA fusion protein (from UniProt P42212 1-238)
- fluorescent intensity when excited at 395 nm, temperature raised from 10° C. to 55° C.: 30%

Source: US20070295907A1
